The values below come from the RNAGym collection of RNA variant scans (doi:10.7554/elife.80360).

B1: CPEB3 Ribozyme (parent)
chain: GGGGGCCACAGCAGAAGCGUUCACGUCGCGGCCCCUGUCAGAUUCUGGUGAAUCUGCGAAUUCUGCUGU

Variants of B1 are the subject of this data set. As to the kind of experiment: self-cleavage, relative activity (ratio to wild type); higher = more cleavage; co-transcriptional.
Turning to GGGGGCCACAGCAGAAGCGUUCACGUCGCGGCUCCCGUCAGAUUCUGGUGAAUCUGCGAAUUCUGCUGU [C33U U36C], the self-cleavage was determined as 0.874. Regarding GGGGGCCACAGCAGAAGCGUUCACGUCGCGGCUCCGGUCAGAUUCUGGUGAAUCUGCGAAUUCUGCUGU [C33U U36G], the self-cleavage is 0.295. For the variant GGGGGCCACAGCAGAAGCGUUCACGUCGCGGCCACUGUCAGAUUCUGGUGAAUUUGCGAAUUCUGCUGU [C34A C54U], the self-cleavage is 0.69. GGGGGCCACAGCAGAAGCGUUCACGUCGCGGCUCCUGUCAGAUUCUGGUGAAUCUGCGAAUUCUUCUGU [C33U G65U]: the self-cleavage is 0.749.

Turning to GGGGGCCACAGCAGAAGCGUUCACGUCGCGGCCACUGUCAGAUUCUGGUGAAUCUGCGAAUUCUGCUGU [C34A], the self-cleavage came to 0.869. As for GGGGGCCACAGCAGAAGCGUUCACGUCGCGGCUCCUGUCAGAUUCUGGUGAAUCUGCGAAUUCUGCAGU [C33U U67A], the figure is 0.971; as for GGGGGCCACAGCAGAAGCGUUCACGUCGCGGCUCCUGUCAGAUUCUGGUGAAUCUGCGAAUUCUGCGGU [C33U U67G], 0.982; as for GGGGGCCACAGCAGAAGCGUUCACGUCGCGGCUCCUGUCAGAUUCUGGUGAAUCUGCGAAUUCUGCUGA [C33U U69A], 1.01.

For GGGGGCCACAGCAGAAGCGUUCACGUCGCGGCUCCUGUCAGAUUCUGGUGAAUCUGCGAAUUCUGCUGC [C33U U69C], the self-cleavage worked out at 1.05. As for GGGGGCCACAGCAGAAGCGUUCACGUCGCGGCUCCUGUCAGAUUCUGGUGAAUCUGCGAAUUCUGCUGG [C33U U69G], the figure is 1.06; as for GGGGGCCACAGCAGAAGCGUUCACGUCGCGGCCACUGUCAGAUUCUGGUGAAUCUGCGAAUUCUGUUGU [C34A C66U], 0.874. Regarding GGGGGCCACAGCAGAAGCGUUCACGUCGCGGCCACUGUCAGAUUCUGGUGAAUCUGCGAAUUCUGGUGU [C34A C66G], the self-cleavage worked out at 0.667.

Take GGGGGCCACAGCAGAAGCGUUCACGUCGCGGCCACUGUCAGAUUCUGGUGAAUCUGAGAAUUCUGCUGU [C34A C57A]: the self-cleavage was 0.255. As for GGGGGCCACAGCAGAAGCGUUCACGUCGCGGCCACUGUCAGAUUCUGGUGAAUCUGGGAAUUCUGCUGU [C34A C57G], the figure is 0.285; as for GGGGGCCACAGCAGAAGCGUUCACGUCGCGGCCACUGUCAGAUUCUGGUGAAUCUGUGAAUUCUGCUGU [C34A C57U], 0.285; as for GGGGGCCACAGCAGAAGCGUUCACGUCGCGGCUCCUGUCAGAUUCUGGUGAAUCUGCGAAUUCUGCUCU [C33U G68C], 1.02. The value for GGGGGCCACAGCAGAAGCGUUCACGUCGCGGCUCCUGUCAGAUUCUGGUGAACCUGCGAAUUCUGCUGU [C33U U53C] was 0.861. With GGGGGCCACAGCAGAAGCGUUCACGUCGCGGCUCCUGUCAGAUUCUGGUGAAACUGCGAAUUCUGCUGU [C33U U53A], the self-cleavage was 0.932. The value for GGGGGCCACAGCAGAAGCGUUCACGUCGCGGCUCCUGUCAGAUUCUGGUGAAGCUGCGAAUUCUGCUGU [C33U U53G] was 0.727; that for GGGGGCCACAGCAGAAGCGUUCACGUCGCGGCUCCUGUCAGAUUCUGGUGAAUCAGCGAAUUCUGCUGU [C33U U55A] was 0.965; that for GGGGGCCACAGCAGAAGCGUUCACGUCGCGGCUCCUGUCAGAUGCUGGUGAAUCUGCGAAUUCUGCUGU [C33U U44G] was 0.945. With GGGGGCCACAGCAGAAGCGUUCACGUCGCGGCCACUAUCAGAUUCUGGUGAAUCUGCGAAUUCUGCUGU [C34A G37A], the self-cleavage is 0.301. The value for GGGGGCCACAGCAGAAGCGUUCACGUCGCGGCCACUUUCAGAUUCUGGUGAAUCUGCGAAUUCUGCUGU [C34A G37U] was 0.26. As for GGGGGCCACAGCAGAAGCGUUCACGUCGCGGCUCCUGUCAGAUUCUGGUGAAUCUUCGAAUUCUGCUGU [C33U G56U], the figure is 0.963; as for GGGGGCCACAGCAGAAGCGUUCACGUCGCGGCUCCUGUCAGAUUCUGGUGAAUCUACGAAUUCUGCUGU [C33U G56A], 0.949; as for GGGGGCCACAGCAGAAGCGUUCACGUCGCGGCUCCUGUCAGAUUCUGGUGAAUCUCCGAAUUCUGCUGU [C33U G56C], 0.849. For the variant GGGGGCCACAGCAGAAGCGUUCACGUCGCGGCCACUGUCAGAUUCUGGUGGAUCUGCGAAUUCUGCUGU [C34A A51G], the self-cleavage is 0.469. The value for GGGGGCCACAGCAGAAGCGUUCACGUCGCGGCUCCUGUCAGAUUCUGGUAAAUCUGCGAAUUCUGCUGU [C33U G50A] was 0.979; that for GGGGGCCACAGCAGAAGCGUUCACGUCGCGGCUCCUGUCAGAUUCUGGUCAAUCUGCGAAUUCUGCUGU [C33U G50C] was 1; that for GGGGGCCACAGCAGAAGCGUUCACGUCGCGGCCACUGUCAGAUUCUGGUGACUCUGCGAAUUCUGCUGU [C34A A52C] was 0.597.

Regarding GGGGGCCACAGCAGAAGCGUUCACGUCGCGGCCACUGUCAGAUUCUGGUGAGUCUGCGAAUUCUGCUGU [C34A A52G], the self-cleavage is 0.497.

As for GGGGGCCACAGCAGAAGCGUUCACGUCGCGGCCACUGUCAGAUUCUGGUGAAUCUGCAAAUUCUGCUGU [C34A G58A], the self-cleavage came to 0.656. As to GGGGGCCACAGCAGAAGCGUUCACGUCGCGGCCACUGUCAGAUUCUGGUGAAUCUGCGAAUUCUGCUCU [C34A G68C], the self-cleavage was 0.954. As for GGGGGCCACAGCAGAAGCGUUCACGUCGCGGCCACUGUCAGAUUCUGGUGAAUCUGCGAAUUCUGCUUU [C34A G68U], the figure is 0.956. As to GGGGGCCACAGCAGAAGCGUUCACGUCGCGGCCACUGUCAGAUUCUGGUGAAUCUGCGAAUUCUGCUAU [C34A G68A], the self-cleavage was 0.935. As for GGGGGCCACAGCAGAAGCGUUCACGUCGCGGCCACUGUCAGAUUCUGGUUAAUCUGCGAAUUCUGCUGU [C34A G50U], the figure is 0.8; as for GGGGGCCACAGCAGAAGCGUUCACGUCGCGGCUCCUGUCAGAUUCUGGUGAAUCUGCGAAUUCAGCUGU [C33U U64A], 0.919; as for GGGGGCCACAGCAGAAGCGUUCACGUCGCGGCUCCUGUCAGAUUCUGGUGAAUCUGCGAAUUCGGCUGU [C33U U64G], 0.941.

Consider GGGGGCCACAGCAGAAGCGUUCACGUCGCGGCUCCUGUCAGAUUCUGGUGAAUCUGCGAAUUCCGCUGU [C33U U64C], for which the self-cleavage is 0.92.
